What all share (assay): cell-based or functional assay
Assay [1] concerns the target HIV-1 Env of isolate MGRM-C-025 (HIV-1).
Assay [2] deals with HIV-1 Env of isolate MGRM-C-006 (HIV-1).
Assay [3] deals with HIV-1 Env of isolate MGRM-C-010 (HIV-1).
For assay [4], the target named is HIV-1 Env of isolate MGRM-C-020 (HIV-1).
Assay [5] concerns the target HIV-1 Env of isolate MGRM-C-012 (HIV-1).
The target of assay [6] is HIV-1 Env of isolate MGRM-C-015 (HIV-1).
The target in assay [7] is HIV-1 Env of isolate MGRM-C-019 (HIV-1).
In assay [8] the target is HIV-1 Env of isolate MGRM-C-002 (HIV-1).
Assay [9] deals with HIV-1 Env of isolate MGRM-C-014 (HIV-1).
The target in assay [10] is HIV-1 Env of isolate MGRM-C-008 (HIV-1).
Assay [11] addresses HIV-1 Env of isolate MGRM-C-001 (HIV-1).
Assay [12] addresses HIV-1 Env of isolate MGRM-C-004 (HIV-1).
Assay [13] has as its target HIV-1 Env of isolate MGRM-C-024 (HIV-1).
Assay [14] deals with HIV-1 Env of isolate MGRM-C-007 (HIV-1).
Assay [15] concerns the target HIV-1 Env of isolate MGRM-C-009 (HIV-1).
In assay [16] the target is HIV-1 Env of isolate MGRM-C-005 (HIV-1).
Assay [17] has as its target HIV-1 Env of isolate MGRM-C-023 (HIV-1).
In assay [18] the target is HIV-1 Env of isolate MGRM-C-013 (HIV-1).
Assay [19] concerns the target HIV-1 Env of isolate MGRM-C-022 (HIV-1).
For assay [20], the target named is HIV-1 Env of isolate MGRM-C-017 (HIV-1).
In assay [21] the target is HIV-1 MGRM-C-027 Env (pseudovirus) (HIV-1).
In assay [22] the target is HIV-1 MGRM-A-010 Env (pseudovirus) (HIV-1).
Assay [23] deals with HIV-1 92TH021 Env (pseudovirus) (HIV-1).
Assay [24] addresses HIV-1 MGRM-C-026 Env (pseudovirus) (HIV-1).
Assay [25] has as its target HIV-1 92RW020 Env (pseudovirus) (HIV-1).
The target of assay [26] is HIV-1 93IN905 Env (pseudovirus) (HIV-1).
Assay [27] has as its target HIV-1 JRCSF Env (pseudovirus) (HIV-1) (UniProt P20871).
Assay [28] addresses HIV-1 MGRM-C-028 Env (pseudovirus) (HIV-1).
Assay [29] concerns the target HIV-1 MGRM-D-018 Env (pseudovirus) (HIV-1).
For assay [30], the target named is HIV-1 APV6 Env (pseudovirus) (HIV-1).
For assay [31], the target named is HIV-1 92UG024 Env (pseudovirus) (HIV-1).
The target of assay [32] is HIV-1 NL43 Env (pseudovirus) (HIV-1).
The target of assay [33] is HIV-1 94UG103 Env (pseudovirus) (HIV-1).

Sequence of 1443_C16 (PG16) (TCN-116) (antibody) (VH): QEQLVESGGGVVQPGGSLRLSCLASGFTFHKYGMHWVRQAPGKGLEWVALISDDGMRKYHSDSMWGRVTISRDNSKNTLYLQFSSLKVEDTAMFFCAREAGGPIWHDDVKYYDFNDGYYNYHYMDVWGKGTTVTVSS
Sequence of 1443_C16 (PG16) (TCN-116) (antibody) (VL): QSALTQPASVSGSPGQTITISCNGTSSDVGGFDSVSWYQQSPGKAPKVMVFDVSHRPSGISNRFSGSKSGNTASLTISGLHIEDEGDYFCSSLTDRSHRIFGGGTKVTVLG

With 2F5 (antibody), the IC50 in assay [1], in assay [2], in [3], in [4], in assay [5] and in assay [6] was greater than 50 µg/mL each time. The 50% inhibitory concentration (IC50) is greater than 50 µg/mL in [7]; 44.7 µg/mL in assay [8]; greater than 50 µg/mL in assay [9]; greater than 50 µg/mL in assay [10]; greater than 50 µg/mL in assay [11]; greater than 50 µg/mL in assay [12]. Also, the IC50 is greater than 50 µg/mL in assay [13]; greater than 50 µg/mL in assay [14]; greater than 50 µg/mL in assay [15]; greater than 50 µg/mL in [16]; greater than 50 µg/mL in assay [17]; 18.4 µg/mL in assay [18]. Further, the half-inhibitory concentration (IC50) in assay [19] and in [20] was greater than 50 µg/mL in each case.

Take 2G12 (antibody): the IC50 in assay [1] was greater than 50 µg/mL; in [2], greater than 50 µg/mL; in assay [3], greater than 50 µg/mL; in assay [4], 18.6 µg/mL; in assay [5], greater than 50 µg/mL; in [6], 1.75 µg/mL. In addition, the half-inhibitory concentration (IC50) is greater than 50 µg/mL in [7]; greater than 50 µg/mL in assay [8]; greater than 50 µg/mL in [9]; greater than 50 µg/mL in assay [10]; 2.93 µg/mL in [11]; greater than 50 µg/mL in assay [12]. For the same substance, the IC50 in assay [13], in assay [14], in assay [15], in assay [16], in [17] and in [18] was greater than 50 µg/mL throughout. Moreover, the half-maximal inhibitory concentration (IC50) in [19] and in [20] was greater than 50 µg/mL in each case.

For 4E10 (antibody), the half-inhibitory concentration (IC50) in assay [1] was 5.58 µg/mL; in [2] it was 4.94 µg/mL; in assay [3] it was 11 µg/mL; in assay [4], 2.8 µg/mL; in assay [5], 0.44 µg/mL; in [6] it was 2.52 µg/mL. In addition, the concentration for half-maximal inhibition (IC50) is 3.49 µg/mL in assay [7]; 18.2 µg/mL in assay [8]; 2.48 µg/mL in assay [9]; 2.97 µg/mL in [10]; 5.66 µg/mL in [11]; 24.2 µg/mL in assay [12]. The IC50 in assay [13] amounted to 22.6 µg/mL; in [14] it was 5.84 µg/mL; in assay [15], 0.56 µg/mL; in assay [16] it was 16.4 µg/mL; in assay [17] it was 1.95 µg/mL; in [18], 2.1 µg/mL. The half-inhibitory concentration (IC50) in [19] worked out at 5.71 µg/mL; in [20] it was 1.47 µg/mL.

On to 1443_C16 (PG16) (TCN-116) (antibody), for which the IC50 is 0.04 µg/mL in assay [1]; 2.62 µg/mL in assay [2]; greater than 50 µg/mL in assay [3]; greater than 50 µg/mL in assay [4]; 0.48 µg/mL in assay [5]; 0.26 µg/mL in assay [6]. For the same substance, the IC50 in assay [7] is 0.002 µg/mL; in assay [8], 28.3 µg/mL; in assay [9], greater than 50 µg/mL; in assay [10], greater than 50 µg/mL; in [11], 16.8 µg/mL; in assay [12], 5.09 µg/mL. Besides, the IC50 was 0.04 µg/mL in [13]; 0.05 µg/mL in [14]; greater than 50 µg/mL in assay [15]; 2.55 µg/mL in [16]; 0.09 µg/mL in assay [17]; greater than 50 µg/mL in [18]. For the same substance, the IC50 in assay [19] was determined as 0.25 µg/mL; in assay [20], 1.8 µg/mL.

Consider 1495_C14 (PGC14) (antibody), for which the IC50 in [1], in [2], in assay [3], in assay [4], in [5] and in assay [6] was greater than 50 µg/mL throughout. For the same substance, the IC50 in assay [7] is 12 µg/mL; in [8], greater than 50 µg/mL; in assay [9], greater than 50 µg/mL; in assay [10], greater than 50 µg/mL; in assay [11] it was greater than 50 µg/mL; in assay [12] it was greater than 50 µg/mL. For the same substance, the 50% inhibitory concentration (IC50) in assay [13], in [14], in [15], in [16], in assay [17] and in [18] was greater than 50 µg/mL throughout. For the same substance, the IC50 in assay [19] and in assay [20] was greater than 50 µg/mL throughout.

Take 1496_C09 (PG9) (TCN-109) (antibody): the 50% inhibitory concentration (IC50) turned out to be 0.17 µg/mL in [1]; 0.23 µg/mL in [2]; 12.4 µg/mL in assay [3]; 0.24 µg/mL in assay [5]; 0.5 µg/mL in assay [6]; 0.01 µg/mL in assay [7]. Besides, the concentration for half-maximal inhibition (IC50) in assay [9] was 0.64 µg/mL; in assay [12], 1.18 µg/mL; in assay [13] it was 0.22 µg/mL; in assay [14], 0.09 µg/mL; in assay [16], 2.98 µg/mL; in assay [17], 0.51 µg/mL. The IC50 is 0.19 µg/mL in [19] and 1.52 µg/mL in assay [20]. In addition, the neutralization IC50 (pseudovirus) in assay [21] was 2.45 µg/mL; in [22] it was 0.0375 µg/mL; in [23], 0.103 µg/mL; in [24], 0.113 µg/mL; in assay [25], 0.161 µg/mL; in [26], 0.048 µg/mL. For the same substance, the neutralization IC50 (pseudovirus) was found to be 0.0048 µg/mL in assay [27]; 0.121 µg/mL in assay [28]; 2.04 µg/mL in assay [29]; 0.214 µg/mL in assay [30]; 1.91 µg/mL in [31]; 0.687 µg/mL in assay [32]. In assay [33], this substance showed a neutralization IC50 (pseudovirus) of 0.31 µg/mL.

Turning to VRC01 (antibody), the IC50 (µg/mL), pseudovirus neutralization in [1] was 2.36 µg/mL; in assay [4] it was 0.396 µg/mL; in assay [6], 1.57 µg/mL; in assay [7], 1.13 µg/mL; in assay [9], greater than 50 µg/mL; in [13], 3.4 µg/mL. Moreover, the values for the IC50 (µg/mL), pseudovirus neutralization in assay [17], in assay [19] and in [20] were 0.077 µg/mL, 13 µg/mL and 0.366 µg/mL, respectively. Further, the IC50, pseudovirus neutralization in assay [12] was found to be 1.01 µg/mL.

On to b12 (antibody), for which the IC50 was greater than 50 µg/mL in assay [1]; greater than 50 µg/mL in assay [2]; greater than 50 µg/mL in assay [3]; greater than 50 µg/mL in assay [4]; greater than 50 µg/mL in assay [5]; 13.3 µg/mL in assay [6]. Also, the IC50 in [7] was greater than 50 µg/mL; in assay [8], greater than 50 µg/mL; in assay [9], greater than 50 µg/mL; in assay [10], 1.51 µg/mL; in [11], greater than 50 µg/mL; in [12], 5.46 µg/mL. The IC50 was greater than 50 µg/mL in [13]; greater than 50 µg/mL in assay [14]; greater than 50 µg/mL in assay [15]; 2.66 µg/mL in assay [16]; 13.9 µg/mL in assay [17]; greater than 50 µg/mL in assay [18]. The IC50 in assay [19] and in assay [20] was greater than 50 µg/mL in each case.
